Data taken from patent US20060193821, “Aptamers to the human IL-12 cytokine family and their use as autoimmune disease therapeutics” (published 2006).

B1: AMX86-H9 (ssRNA)
RNA: GGGAAAAGCGAAUCAUACACAAGAUGGUUCCCACGUGAAAGUGGCUAGCGAGUACCCCACUUAUGCUCCGCCAGAGACCAACCAAGGG
modifications: 2'-F C,U
B2: ARC1626 (mixed)
RNA: ACAGGCAAGUAAUUGGGGAGUGCGGGCGGGGUGU
modifications: ARC1544 sugars; PS at 17 linkages 5' of deoxy residues as printed in Table 29; 3'-idT [PS at 2-3, 3-4, 4-5, 6-7, 7-8, 8-9, 10-11, 11-12, 14-15, 17-18, 18-19, 19-20, 21-22, 25-26, 27-28, 28-29, 32-33; ARC1544 sugars (2'-deoxy/2'-OMe); 3'-inverted dT at 35]
B3: ARC1756 (mixed)
RNA: B2 RNA
modifications: mAmC-s-dAdGdGmC-s-dAmAmGmUmA-s-dAmUmU-s-dGmGmG-s-dG-s-dA-s-dGmU-s-dGmCmGmGmGmCmGmGmGmGmUmGmU-3T (d deoxy, m 2'-OMe, s PS, 3T idT) [PS at 2-3, 6-7, 11-12, 14-15, 17-18, 18-19, 19-20, 21-22; 2'-deoxy at 3,4,5,7,12,15,18,19,20,22; 2'-OMe at other nt 1-34; 3'-inverted dT at 35]
B4: ARC1623 (mixed)
RNA: B2 RNA
modifications: dAmCdAdGdGmCdAdAdGmUdAdAmUmUdGmGmG-s-dG-s-dA-s-dGmU-s-dGmCmGmGdGmCdGdGmGmGmUdGmU-3T (d deoxy, m 2'-OMe, s PS, 3T idT) [PS at 17-18, 18-19, 19-20, 21-22; 2'-OMe at 2,6,10,13,14,16,17,21,23,24,25,27,30,31,32,34; 2'-deoxy at other nt 1-33; 3'-inverted dT at 35]
B5: ARC1624 (mixed)
RNA: B2 RNA
modifications: dAmCdAdGdGmCdAdAdGmUdAdAmUmUdGmGmGdGdAdGmUdGmCmGmG-s-dGmC-s-dG-s-dGmGmGmUdGmU-3T (d deoxy, m 2'-OMe, s PS, 3T idT) [PS at 25-26, 27-28, 28-29; 2'-OMe at 2,6,10,13,14,16,17,21,23,24,25,27,30,31,32,34; 2'-deoxy at other nt 1-33; 3'-inverted dT at 35]
B6: ARC1625 (mixed)
RNA: B2 RNA
modifications: dAmCdAdGdGmCdAdAdGmUdAdAmUmUdGmGmGdGdAdGmUdGmCmGmGdGmCdGdGmGmGmU-s-dGmU-3T (d deoxy, m 2'-OMe, s PS, 3T idT) [PS at 32-33; 2'-OMe at 2,6,10,13,14,16,17,21,23,24,25,27,30,31,32,34; 2'-deoxy at other nt 1-33; 3'-inverted dT at 35]

Legend:
[1] = molecular target: T1, IL-23 (human, p19/p40 heterodimer) (Homo sapiens, UniProt Q9NPF7;P29460 SEQ:20-189,SEQ:23-328); test: filter; dot blot; DPBS with Ca and Mg, 0.1 mg/mL BSA, 30 min RT; conditions: tags: R&D Systems, carrier free, label: 5'-32P
Protocol: The dot blot binding assay previously described was used to characterize the relative potency of the majority of the aptamers synthesized. For KD determination, chemically synthesized aptamers were purified using denaturing polyacrylamide gel electrophoresis, 5′end labeled with γ-³²P ATP and were tested for direct binding to full human IL-23. An 8 point protein titration was used in the dot blot binding assay (either {100 nM, 30 nM, 10 nM, 3 nM, 1 nM, 300 pM, 100 pM, 0 pM} or {10 nM, 3 nM, 1 nM, 300 pM, 100 pM, 30 pM, 10 pM, 0 pM}) in Dulbecco's PBS (with Mg⁺⁺ and Ca⁺⁺) with 0.1 mg/mL BSA. KD values were calculated by fitting the equation y=(max/(1+K/protein))+yint using KaleidaGraph (KaleidaGraph v. 3.51, Synergy Software). Sequences of the ARC979 derivatives synthesized, purified and assayed for binding to IL-23 as well as the results of the protein binding characterization are tabulated below in Tables 29 and 30.

[2] = molecular target: T1, IL-23 (human, p19/p40 heterodimer); test: filter; +tRNA; conditions: tags: R&D Systems, carrier free
[3] = molecular target: T1, IL-23 (human, p19/p40 heterodimer); test: cell_activity; TransAM STAT3; conditions: tags: R&D Systems, carrier free
Protocol: In summary, the cell-based assay was conducted by isolating the peripheral blood mononuclear cells (PBMCs) from whole blood using a Histopaque gradient (Sigma, St. Louis, Mo.). The PBMCs were cultured for 3 to 5 days at 37° C./5% CO₂ in Peripheral Blood Medium (Sigma) which contains PHA, supplemented with IL-2 (100 units/mL) (R&D Systems, Minneapolis, Minn.), to generate PHA Blasts. To test IL-23 aptamers, the PHA Blasts were washed twice with 1×PBS, then serum starved for four hours in RPMI, 0.20% FBS. After serum starvation, approximately 2 million cells were aliquotted into appropriately labeled eppendorf tubes. hIL-23 at a final constant concentration of 3 ng/mL (R&D Systems, Minneapolis, Minn.) was combined with a dilution series of various IL-23 aptamers as described in Example 1, and the cytokine/aptamer mixture was added to the aliquotted cells in a final volume of 100 μl and incubated at 37° C. for 10-12 minutes. The incubation reaction was stopped by adding 1 mL of ice-cold PBS with 1.5 mM Na₃VO₄. Cell lysates were made using the lysis buffer provided by the TransAM™ STAT 3 assay following the manufacturer's instructions. FIG. 20 depicts a flow summary of the protocol used for the cell based assay.
Full length clones from the rRfY selection described in Example 1A, and select minimized rRfY clones that were described in Example 2A. 1, were tested using the TransAM™ STAT3 activation assay. Table 34 summarizes the cell based assay data for IL-23 full length aptamers generated from the rRfY selections described in Example 1A. 1, each compared to the activity of their respective parent (full length) clone.

[4] = molecular target: T1, IL-23 (human, p19/p40 heterodimer); test: filter; SHMCK, tRNA; conditions: tags: R&D Systems, carrier free
Summary of the method: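 Trace ³²P-labeled RNA incubated with a dilution series of h-IL-23 for 30 min at room temperature in 1×SHMCK (pH 7.4, 1 mM MgCl₂, 1 mM CaCl₂) plus 0.1 mg/mL tRNA. Bound RNA captured on nitrocellulose, free RNA on nylon; quantified by phosphorimaging. Clone screens used single points of 75, 100 or 200 nM IL-23 or IL-12.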

[5] = molecular target: IL-12 (human, p35/p40 heterodimer) (Homo sapiens, UniProt P29459;P29460 SEQ:57-253,SEQ:23-328); test: filter; tRNA
Protocol: Monitoring Progress of rRfY Selection. Dot blot binding assays were performed throughout the selections to monitor the protein binding affinity of the pools. Trace ³²P-labeled RNA was combined with a dilution series of h-IL-23 and incubated at room temperature for 30 minutes in 1×SHMCK (20 mM Hepes, 120 mM NaCl, 5 mM KCl, 1 mM MgCl₂, 1 mM CaCl₂, pH 7.4) plus 0.1 mg/mL tRNA for a final volume of 20 μL. The binding reactions were analyzed by nitrocellulose filtration using a Minifold I dot-blot, 96-well vacuum filtration manifold (Schleicher & Schuell, Keene, N.H.). A three-layer filtration medium was used, consisting (from top to bottom) of Protran nitrocellulose (Schleicher & Schuell), Hybond-P nylon (Amersham Biosciences) and GB002 gel blot paper (Schleicher & Schuell). RNA that is bound to protein is captured on the nitrocellulose filter, whereas the non-protein bound RNA is captured on the nylon filter. The gel blot paper was included simply as a supporting medium for the other filters. Following filtration, the filter layers were separated, dried and exposed on a phosphor screen (Amersham Biosciences, Piscataway, N.J.) and quantified using a Storm 860 Phosphorimager® blot imaging system (Amersham Biosciences).
When a significant positive ratio of binding of RNA in the presence of h-IL-23 versus in the absence of h-IL-23 was seen, the pools were cloned using a TOPO TA cloning kit (Invitrogen, Carlsbad, Calif.) according to the manufacturer's instructions. For the h-IL-23 and X-IL-23 selections, the Round 8 pool templates were cloned, and 32 individual clones from each selections were assayed in a 1-point dot blot screen (+/−75 nM h-IL-23, as well as a separate screen at +/−75 nM h-IL-12). For the PN-IL-23 selection, the Round 10 pool was cloned and sequenced, and 8 unique clones were assayed for protein binding in a 1-point dot blot screen (+/−200 nM h-IL-23 and a separate screen at +/−200 nM h-IL-12). Subsequently, the Round 10 PN-IL-23 pool was re-cloned for further sequences, as well as the R12 PN-IL-23 pool, and the clones were assayed for protein binding in a 1 point do blot screen (+/−100 nM h-IL-23 or +/−200 nM h-IL-12).

T1 sequence (Q9NPF7 20-189, chain 1 of 2): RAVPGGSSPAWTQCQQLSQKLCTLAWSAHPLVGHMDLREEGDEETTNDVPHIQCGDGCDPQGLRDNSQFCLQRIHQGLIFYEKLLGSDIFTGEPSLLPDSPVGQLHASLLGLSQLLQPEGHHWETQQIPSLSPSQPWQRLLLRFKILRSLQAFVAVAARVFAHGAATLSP
T1 sequence (P29460 23-328, chain 2 of 2): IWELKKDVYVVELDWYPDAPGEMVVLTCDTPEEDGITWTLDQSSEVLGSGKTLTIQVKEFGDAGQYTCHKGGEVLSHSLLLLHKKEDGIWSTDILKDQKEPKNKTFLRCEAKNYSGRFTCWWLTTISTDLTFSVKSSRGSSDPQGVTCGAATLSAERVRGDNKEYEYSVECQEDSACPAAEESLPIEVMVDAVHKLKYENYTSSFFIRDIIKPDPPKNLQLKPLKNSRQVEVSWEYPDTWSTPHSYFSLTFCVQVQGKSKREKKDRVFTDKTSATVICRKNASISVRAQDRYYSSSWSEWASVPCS
Chain of IL-12 (human, p35/p40 heterodimer) (P29459 23-219, chain 1 of 2): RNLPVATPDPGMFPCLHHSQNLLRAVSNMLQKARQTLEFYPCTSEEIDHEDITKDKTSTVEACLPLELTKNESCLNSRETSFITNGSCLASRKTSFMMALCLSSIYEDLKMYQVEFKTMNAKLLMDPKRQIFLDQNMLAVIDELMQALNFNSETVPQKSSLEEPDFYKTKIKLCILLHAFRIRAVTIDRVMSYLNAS
Chain of IL-12 (human, p35/p40 heterodimer) (P29460 23-328, chain 2 of 2): as the sequence (P29460 23-328, chain 2 of 2) above

Binder | Kd [1] [µM] | Kd [2] [µM] | further results
GGCAAGUAAUUGGGGAGUGCGGGCGGGG (mixed, dRmY; 3'-idT) [ARC1468] | 0.01 | – | –
GGCAAGGUAAUUGGGGAGUGCGGGCUGGG (mixed, deoxy A,G; 2'-OMe C,U) [ARC893] | – | 2.86 | –
GGUGGGGAGUGCGGGCGGGGGGUCGCC (mixed, deoxy A,G; 2'-OMe C,U) [ARC797] | – | 0.05 | –
CCAGGCAAGGUAAUUGGGGAGUGCGGGCGGGGUGG (mixed, deoxy A,G; 2'-OMe C,U) [ARC890] | – | 0.114 | –
ACAGGCAAGGUAAUUGGGGAGUGCGGGCGGGGUGU (mixed, deoxy A,G; 2'-OMe C,U) [ARC889] | – | 0.115 | –
GAUGUUGGCAAGUAAUUGGGGAGUGCGGGCGGGGUUCAUC (mixed, deoxy A,G; 2'-OMe C,U; 3'-idT) [ARC897] | – | 0.093 | –
UAAUUGGGGAGUGCGGGCGGGGGGUCGAUCG (mixed, deoxy A,G; 2'-OMe C,U) [ARC796] | – | 0.106 | –
GGCAAGGUAAUUGGGUAGUGAGGGCGGGG (mixed, deoxy A,G; 2'-OMe C,U) [ARC892] | – | 0.255 | –
B1 | – | – | IC50 [3]: 0.25 µM; Kd [4]: 0.105 µM; Kd [5]: 0.332 µM
GGCAAGUAAUUGGGGAGUGCGGGCGGGG (mixed, dRmY; 2'-OMe at two As and one G as printed in Table 29; 3'-idT) [ARC1469] | 0.0498 | – | –
GGCAAGGUAAUUGGGAAGUGUGGGCGGGG (mixed, deoxy A,G; 2'-OMe C,U) [ARC891] | – | 0.177 | –
B2 | 0.0001 | – | –
ACAGGCAAGUAAUUGGGGAGUGCGGGCGGGGUGU (mixed, dRmY with 2'-OMe at G16, G17, G23, G24, G29, G30; 3'-idT) [ARC1544] | 0.0009 | – | –
ACAGGCAAGUAAUUGGGGAGUGCGGGCGGGGUGU (mixed, dRmY; 2'-OMe G15; 3'-idT) [ARC1436] | 0.0151 | – | –
B3 | 0.0005 | – | –
ACAGGCAAGUAAUUGGGGAGUGCGGGCGGGGUGU (mixed, dRmY; 3'-idT) [ARC1386] | – | – | Kd ([1]; G4 (predicted)): 0.001 µM
B4 | 0.0002 | – | –
B5 | 0.0004 | – | –
B6 | 0.0004 | – | –
ACAGGCAAGUAAUUGGGGAGUGCGGGCGGGGUGU (mixed, dRmY; 2'-OMe A7; 3'-idT) [ARC1431] | 0.01 | – | –
CCAGGCAAGUAAUUGGGGAGUGCGGGCGGGGUGG (mixed, deoxy A,G; 2'-OMe C,U) [ARC980] | – | 0.139 | –
